Reference: patent US20220025381A1
Blank lines part the entries; values can stand above or below the binder they belong to.

Experiments:
Test in all cases: cell-based or functional assay
[1] = target: CD92 PV1-CaffVHH-L1-iCre-271C-NLS-BGHpA
[2] = target: CD176 PV1-tandem CaffVHH-L1-iCre-271C-NLS-BGHpA
[3] = target: T1, CD244 PV1-GAI-L1-RfxCas13d-560C-NLS-BGHpA
T1 sequence: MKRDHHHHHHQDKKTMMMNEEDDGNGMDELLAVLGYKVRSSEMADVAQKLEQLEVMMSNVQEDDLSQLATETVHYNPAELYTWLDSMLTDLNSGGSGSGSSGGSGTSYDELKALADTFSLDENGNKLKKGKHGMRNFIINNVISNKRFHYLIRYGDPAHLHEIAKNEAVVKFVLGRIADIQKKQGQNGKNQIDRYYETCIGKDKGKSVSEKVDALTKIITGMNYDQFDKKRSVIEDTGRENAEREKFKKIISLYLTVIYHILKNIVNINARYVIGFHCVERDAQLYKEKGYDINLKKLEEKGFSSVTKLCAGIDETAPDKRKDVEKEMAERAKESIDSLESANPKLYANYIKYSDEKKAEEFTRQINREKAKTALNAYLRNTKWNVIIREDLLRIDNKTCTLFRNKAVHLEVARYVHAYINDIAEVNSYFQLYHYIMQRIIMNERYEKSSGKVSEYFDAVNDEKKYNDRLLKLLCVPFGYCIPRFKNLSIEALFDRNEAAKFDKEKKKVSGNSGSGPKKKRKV

[4] = target: T2, CD246 PV1-GAI-L1-RfxCas13d-566C-NLS-BGHpA
T2 sequence: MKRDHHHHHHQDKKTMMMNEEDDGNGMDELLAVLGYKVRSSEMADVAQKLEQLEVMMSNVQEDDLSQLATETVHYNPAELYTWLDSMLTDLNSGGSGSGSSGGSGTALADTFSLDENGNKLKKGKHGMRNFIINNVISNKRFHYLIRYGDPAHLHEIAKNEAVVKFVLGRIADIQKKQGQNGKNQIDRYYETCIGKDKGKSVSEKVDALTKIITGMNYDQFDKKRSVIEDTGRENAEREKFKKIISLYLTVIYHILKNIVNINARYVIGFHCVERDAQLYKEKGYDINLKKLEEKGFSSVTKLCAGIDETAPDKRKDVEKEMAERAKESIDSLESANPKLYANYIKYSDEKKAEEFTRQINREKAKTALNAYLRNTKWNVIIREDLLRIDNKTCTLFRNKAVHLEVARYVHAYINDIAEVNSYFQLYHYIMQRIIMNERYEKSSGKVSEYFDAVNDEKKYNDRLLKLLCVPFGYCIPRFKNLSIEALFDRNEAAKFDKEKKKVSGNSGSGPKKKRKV

[5] = target: T3, CD374 PV1-RfxCas13d-560C-NLS-BGHpA
T3 sequence: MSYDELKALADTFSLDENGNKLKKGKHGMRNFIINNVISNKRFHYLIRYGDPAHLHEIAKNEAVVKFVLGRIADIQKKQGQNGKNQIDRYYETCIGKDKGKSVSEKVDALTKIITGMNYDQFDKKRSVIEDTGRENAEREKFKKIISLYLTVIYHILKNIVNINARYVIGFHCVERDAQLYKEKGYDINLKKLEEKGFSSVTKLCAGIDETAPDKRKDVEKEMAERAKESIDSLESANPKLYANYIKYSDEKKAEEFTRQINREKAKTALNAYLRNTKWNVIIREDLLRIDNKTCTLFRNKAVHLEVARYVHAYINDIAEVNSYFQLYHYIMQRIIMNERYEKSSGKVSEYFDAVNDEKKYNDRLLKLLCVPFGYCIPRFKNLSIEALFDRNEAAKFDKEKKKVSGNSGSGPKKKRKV

Sequence of CD92 PV1-CaffVHH-L1-iCre-271C-NLS-BGHpA (chain, as listed by the source): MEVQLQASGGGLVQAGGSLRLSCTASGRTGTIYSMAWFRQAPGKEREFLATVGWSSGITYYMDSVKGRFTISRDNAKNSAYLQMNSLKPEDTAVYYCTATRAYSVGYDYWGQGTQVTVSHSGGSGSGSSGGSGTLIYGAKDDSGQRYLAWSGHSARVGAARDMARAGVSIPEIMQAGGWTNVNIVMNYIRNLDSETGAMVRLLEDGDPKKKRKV
Sequence of CD176 PV1-tandem CaffVHH-L1-iCre-271C-NLS-BGHpA (chain, as listed by the source): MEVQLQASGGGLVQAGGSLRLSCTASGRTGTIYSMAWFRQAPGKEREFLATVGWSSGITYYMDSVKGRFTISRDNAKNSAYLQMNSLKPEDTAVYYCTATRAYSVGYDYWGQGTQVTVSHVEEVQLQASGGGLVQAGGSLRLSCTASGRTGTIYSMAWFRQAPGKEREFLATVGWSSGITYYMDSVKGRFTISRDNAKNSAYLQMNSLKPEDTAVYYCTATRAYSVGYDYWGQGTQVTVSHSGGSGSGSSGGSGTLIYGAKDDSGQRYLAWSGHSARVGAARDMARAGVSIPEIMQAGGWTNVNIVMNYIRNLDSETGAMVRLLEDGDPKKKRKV

Cre reporter expression, share of transfected cells, 25 uM caffeine for 5 hours (% of transfected cells) [1]: 30
Cre reporter turned on, share of transfected cells, caffeine at least 50 uM, induction at least 5 hours (% of transfected cells) [1]: 38
Cre reporter turned on, share of transfected cells, with caffeine, 48 hours (% of transfected cells) [1]: > 80
caffeine concentration able to turn on Cre activity and generate reporter expression in 48 hours [1]: 0.1 µM caffeine
caffeine concentration at which similar, if not less, recombination efficiency was reached (single CaffVHH) [1]: 500 µM caffeine
B1: CD91 PV1-iCre-N270-L1-CaffVHH-NLS-BGHpA (protein)
chain: MSNLLTVHQNLPALPVDATSDEVRKNLMDMFRDRQAFSEHTWKMLLSVCRSWAAWCKLNNRKWFPAEPEDVRDYLLYLQARGLAVKTIQQHLGQLNMLHRRSGLPRPSDSNAVSLVMRRIRKENVDAGERAKQALAFERTDFDQVRSLMENSDRCQDIRNLAFLGIAYNTLLRIAEIARIRVKDISRTDGGRMLIHIGRTKTLVSTAGVEKALSLGVTKLVERWISVSGVADDPNNYLFCRVRKNGVAAPSATSQLSTRALEGIFEATHRSGGSGSGSSGGSGTMEVQLQASGGGLVQAGGSLRLSCTASGRTGTIYSMAWFRQAPGKEREFLATVGWSSGITYYMDSVKGRFTISRDNAKNSAYLQMNSLKPEDTAVYYCTATRAYSVGYDYWGQGTQVTVSHPKKKRKV

caffeine concentration at maximum recombination efficiency [2]: 20 µM caffeine
recombination against the single CaffVHH version, same induction conditions [2]: < 13 fold
B2: CD175 PV1-iCre-N270-L1-tandem CaffVHH-NLS-BGHpA (protein)
chain: MSNLLTVHQNLPALPVDATSDEVRKNLMDMFRDRQAFSEHTWKMLLSVCRSWAAWCKLNNRKWFPAEPEDVRDYLLYLQARGLAVKTIQQHLGQLNMLHRRSGLPRPSDSNAVSLVMRRIRKENVDAGERAKQALAFERTDFDQVRSLMENSDRCQDIRNLAFLGIAYNTLLRIAEIARIRVKDISRTDGGRMLIHIGRTKTLVSTAGVEKALSLGVTKLVERWISVSGVADDPNNYLFCRVRKNGVAAPSATSQLSTRALEGIFEATHRSGGSGSGSSGGSGTMEVQLQASGGGLVQAGGSLRLSCTASGRTGTIYSMAWFRQAPGKEREFLATVGWSSGITYYMDSVKGRFTISRDNAKNSAYLQMNSLKPEDTAVYYCTATRAYSVGYDYWGQGTQVTVSHVEEVQLQASGGGLVQAGGSLRLSCTASGRTGTIYSMAWFRQAPGKEREFLATVGWSSGITYYMDSVKGRFTISRDNAKNSAYLQMNSLKPEDTAVYYCTATRAYSVGYDYWGQGTQVTVSHPKKKRKV

basal knockdown of mCherry induced by gRNA, no gibberellin [3]: 10 to 20%
drug-induced knockdown of mCherry with gRNA [3]: > 75%
B3: CD243 PV1-RfxCas13d-N559-L1-GID-NLS-BGHpA (protein)
chain: MIEKKKSFAKGMGVKSTLVSGSKVYMTTFAEGSDARLEKIVEGDSIRSVNEGEAFSAEMADKNAGYKIGNAKFSHPKGYAVVANNPLYTGPVQQDMLGLKETLEKRYFGESADGNDNICIQVIHNILDIEKILAEYITNAAYAVNNISGLDKDIIGFGKFSTVYTYDEFKDPEHHRAAFNNNDKLINAIKAQYDEFDNFLDNPRLGYFGQAFFSKEGRNYIINYGNECYDILALLSGLRHWVVHNNEEESRISRTWLYNLDKNLDNEYISTLNYLYDRITNELTNSFSKNSAANVNYIAETLGINPAEFAEQYFRFSIMKEQKNLGFNITKLREVMLDRKDMSEIRKNHKVFDSIRTKVYTMMDFVIYRYYIEEDAKVAAANKSLPDNEKSLSEKDIFVINLRGSFNDDQKDALYYDEANRIWRKLENIMHNIKEFRGNKTREYKKKDAPRLPRILPAGRDVSAFSKLMYALTMFLDGKEINDLLTTLINKFDNIQSFLKVMPLIGVNAKFVEEYAFFKDSAKIADELRLIKSFARMGEPIADARRAMYIDAIRILGTNLSGGSGSGSSGGSGTMAASDEVNLIESRTVVPLNTWVLISNFKVAYNILRRPDGTFNRHLAEYLDRKVTANANPVDGVFSFDVLIDRRINLLSRVYRPAYADQEQPPSILDLEKPVDGDIVPVILFFHGGSFAHSSANSAIYDTLCRRLVGLCKCVVVSVNYRRAPENPYPCAYDDGWIALNWVNSRSWLKSKKDSKVHIFLAGDSSGGNIAHNVALRAGESGIDVLGNILLNPMFGGNERTESEKSLDGKYFVTVRDRDWYWKAFLPEGEDREHPACNPFSPRGKSLEGVSFPKSLVVVAGLDLIRDWQLAYAEGLKKAGQEVKLMHLEKATVGFYLLPNNNHFHNVMDEISAFVNAECPKKKRKV

basal knockdown of mCherry induced by gRNA, no gibberellin [4]: 10 to 20%
drug-induced knockdown of mCherry with gRNA [4]: > 75%
B4: CD245 PV1-RfxCas13d-N565-L1-GID-NLS-BGHpA (protein)
chain: MIEKKKSFAKGMGVKSTLVSGSKVYMTTFAEGSDARLEKIVEGDSIRSVNEGEAFSAEMADKNAGYKIGNAKFSHPKGYAVVANNPLYTGPVQQDMLGLKETLEKRYFGESADGNDNICIQVIHNILDIEKILAEYITNAAYAVNNISGLDKDIIGFGKFSTVYTYDEFKDPEHHRAAFNNNDKLINAIKAQYDEFDNFLDNPRLGYFGQAFFSKEGRNYIINYGNECYDILALLSGLRHWVVHNNEEESRISRTWLYNLDKNLDNEYISTLNYLYDRITNELTNSFSKNSAANVNYIAETLGINPAEFAEQYFRFSIMKEQKNLGFNITKLREVMLDRKDMSEIRKNHKVFDSIRTKVYTMMDFVIYRYYIEEDAKVAAANKSLPDNEKSLSEKDIFVINLRGSFNDDQKDALYYDEANRIWRKLENIMHNIKEFRGNKTREYKKKDAPRLPRILPAGRDVSAFSKLMYALTMFLDGKEINDLLTTLINKFDNIQSFLKVMPLIGVNAKFVEEYAFFKDSAKIADELRLIKSFARMGEPIADARRAMYIDAIRILGTNLSYDELKSGGSGSGSSGGSGTMAASDEVNLIESRTVVPLNTWVLISNFKVAYNILRRPDGTFNRHLAEYLDRKVTANANPVDGVFSFDVLIDRRINLLSRVYRPAYADQEQPPSILDLEKPVDGDIVPVILFFHGGSFAHSSANSAIYDTLCRRLVGLCKCVVVSVNYRRAPENPYPCAYDDGWIALNWVNSRSWLKSKKDSKVHIFLAGDSSGGNIAHNVALRAGESGIDVLGNILLNPMFGGNERTESEKSLDGKYFVTVRDRDWYWKAFLPEGEDREHPACNPFSPRGKSLEGVSFPKSLVVVAGLDLIRDWQLAYAEGLKKAGQEVKLMHLEKATVGFYLLPNNNHFHNVMDEISAFVNAECPKKKRKV

gRNA induced knockdown of mCherry without CID domains [5]: < 80%
B5: CD373 PV1-RfxCas13d-N559-NLS-BGHpA (protein)
chain: MIEKKKSFAKGMGVKSTLVSGSKVYMTTFAEGSDARLEKIVEGDSIRSVNEGEAFSAEMADKNAGYKIGNAKFSHPKGYAVVANNPLYTGPVQQDMLGLKETLEKRYFGESADGNDNICIQVIHNILDIEKILAEYITNAAYAVNNISGLDKDIIGFGKFSTVYTYDEFKDPEHHRAAFNNNDKLINAIKAQYDEFDNFLDNPRLGYFGQAFFSKEGRNYIINYGNECYDILALLSGLRHWVVHNNEEESRISRTWLYNLDKNLDNEYISTLNYLYDRITNELTNSFSKNSAANVNYIAETLGINPAEFAEQYFRFSIMKEQKNLGFNITKLREVMLDRKDMSEIRKNHKVFDSIRTKVYTMMDFVIYRYYIEEDAKVAAANKSLPDNEKSLSEKDIFVINLRGSFNDDQKDALYYDEANRIWRKLENIMHNIKEFRGNKTREYKKKDAPRLPRILPAGRDVSAFSKLMYALTMFLDGKEINDLLTTLINKFDNIQSFLKVMPLIGVNAKFVEEYAFFKDSAKIADELRLIKSFARMGEPIADARRAMYIDAIRILGTNLPKKKRKV
